The results in this text go back to US20250136678A1 (BIOSION, published 2025).

Test [1] concerns the target T1, human CLDN18.2 (NP_001002026.1) (human, UniProt P56856-2 1-261).
T1 construct: whole, on cells; KATO III cells also served as target cells in the ADCC assay; also called Claudin18.2; Claudin-18 splice variant 2
Description: FACS on BAF3-CLDN18.2 cells, FITC fluorescence; item F7; blank without antibody (H7) MFI 178.

The target of test [2] is T1, human CLDN18.2 (NP_001002026.1). Description: FACS on BAF3-CLDN18.2 cells, FITC fluorescence; item G7; blank without antibody (H7) MFI 178.
The target in test [3] is human CLDN18.1 (Uniprot No:P56856) (human) (UniProt P56856). The test can be described thus: FACS on BAF3-CLDN18.1 cells, FITC fluorescence; item B1; blank without antibody (C1) MFI 242.
Test [4] shares this target. The test can be described thus: FACS on BAF3-CLDN18.1 cells, FITC fluorescence; item A1; blank without antibody (C1) MFI 242.
The target of test [5] is T1, human CLDN18.2 (NP_001002026.1). The test can be described thus: FACS on 293T-CLDN18.2 cells, PE fluorescence; item B4; blank without antibody (E4) MFI 21.8.
Test [6] shares this target. Description: FACS on 293T-CLDN18.2 cells, PE fluorescence; item A4; blank without antibody (E4) MFI 21.8.
For test [7] the target is unchanged. The test can be described thus: FACS on 293T-CLDN18.2 cells, PE fluorescence; item D4; blank without antibody (E4) MFI 21.8.
Test [8] has the same target. Description: cell-based binding FACS on BAF3-CLDN18.2 cells, MFI against Con of mAb (nM).
Description: (§1) The BAF3-CLDN18.2, BAF3-CLDN18.1 and BAF3 cells were harvested, washed twice and re-suspended in phosphate buffered saline (PBS) containing 2% v/v Fetal Bovine Serum (FACS buffer), BAF3 cells were used here as blank control. The cells, 1×10⁵ per well, were incubated in 96 well-plates with 100 μl serially diluted antibodies or controls (starting from 10 μg/mL, 5-fold serial dilution) in FACS buffer for 50 minutes on ice. […] Following an incubation of 50 minutes at 4° C. in dark, cells were washed three times and re-suspended in FACS buffer. Fluorescence was measured using a Becton Dickinson FACS Canto II-HTS equipment, and the MFI (mean fluorescence intensity) was plotted against antibody concentration. Data was analyzed using Graphpad Prism and EC₅₀ values were reported.
The target is the same in test [9]. Description: cell-based binding FACS on BAF3-CLDN18.2 cells; y axis unlabelled, nM is the unit of the x axis; the three chimeric curves run close together and reach about 7200-7700 at the last point without a clear plateau.
Description: as §1
The target is the same in test [10]. The test can be described thus: cell-based binding FACS on BAF3-CLDN18.2 cells, MFI against Con of mAb, nM is the unit of the x axis; curve lies in a bundle of overlapping curves reaching MFI about 5000-6000.
Description: as §1
Test [11] shares this target. The test can be described thus: cell-based binding FACS on BAF3-CLDN18.2 cells, MFI against Con of mAb, nM is the unit of the x axis; low curve reaching only MFI about 300-400 at the last point.
Description: as §1
For test [12] the target is unchanged. Description: cell-based binding FACS on BAF3-CLDN18.2 cells, MFI against Con of mAb, nM is the unit of the x axis; the curve levels off near MFI 600.
Description: as §1
For test [13] the target is unchanged. Description: cell-based blocking FACS on BAF3-CLDN18.2 cells; unlabeled Zolbetuximab against biotin labeled Zolbetuximab, SA-PE detection, nM is the unit of the x axis; signal falls only from about 870 to about 600 at the last point, no lower plateau is reached.
Description: The anti-CLDN18.2 antibodies of the disclosure, and the controls were diluted with FACS buffer starting from 10 μg/mL with 5-fold serial dilution. BAF3-CLDN18.2 cells were harvested from cell culture flasks at the log phase, washed twice and re-suspended in PBS containing 2% v/v Fetal Bovine Serum (FACS buffer). […] Then the cells were washed twice with FACS buffer, added with 100 μl/well SA-PE (1:200 dilution in FACS buffer, Cat #:016-110-084, Jackson Immunoresearch), and incubated for 40 minutes at 4° C. in dark. Cells were washed twice and re-suspended in FACS buffer. Fluorescence was measured using a Becton Dickinson FACS Canto II-HTS equipment. Data was analyzed using Graphpad Prism and IC₅₀ values were reported.
Test [14] has the same target. Description: cell-based binding FACS on BAF3-CLDN18.2 cells, MFI against Con of mAb, nM is the unit of the x axis; low curve (open down-triangles) reaching only MFI about 400-500.
Description: as §1
Test [15] shares this target. Description: cell-based binding FACS on BAF3-CLDN18.2 cells; y axis unlabelled, nM is the unit of the x axis; the curve reaches only about 800 at the last point.
Description: as §1

Substitutions are numbered along the chain they refer to.

For orientation: EC50 means the concentration needed to bring the measured effect to its halfway point. A high value points to lower potency in that assay. Usually IC50 stands for the concentration that gives 50% inhibition. Lower therefore signals inhibition by little substance.

With “anti-CLDN18 antibody (Cat #ab203563, Abeam)”, the MFI at 1000 ng/ml in test [1] was 3340; in test [4], 5340. Moreover, the MFI at 500 ng/ml in test [2] came out at 3020; in test [3], 4020.

In test [5], hIgG (antibody) had an MFI at 2500 ng/ml of 28.7. The same molecule came in with an MFI at 10000 ng/ml in test [6] of 26.9. For the same molecule, the MFI at 156.25 ng/ml in test [7] worked out at 21.4.

B1: huE1B1B8C7-V8 (antibody, human IgG1, kappa, V domains shown)
VH: QVQLVQSGAEVKKPGASVKVSCKASGYSFTNYWVNWVRQAPGQGLEWIGMVHPSGSETRLNQQFKDKATLTRDTSTSTVYMELSSLRSEDTAVYYCARVWSGNAFDYWGQGTLVTVSS
VL: DIVMTQSPDSLAVSLGERATINCLSSQSLLASGNQRNYLTWYQQKPGQPPKLLIYWASTRDSGVPDRFTGSGSGVDFTLTISSVQAEDVAVYYCQNGFSFPFTFGQGTKLEIKR
notes: Humanized, human IgG1/kappa; X positions as numbered in CLM-00003 and CLM-00004
Consider B1, for which the binding result in test [8] is “binds”.

B2: chE1B1B8C7-V2 (antibody, human IgG1, kappa, V domains shown)
VH: QVQLQQPGAELVRPGTSVKLSCKASGYSFTNYWVNWVKQRPGQGLEWIGMVHPSGSETRLNQQFKDKATLTVDKSSNTAYMQLNRPTSEDSAVYYCARVWSGNAFDYWGQGTTLIVSS
VL: DIVMTQSPSSLTVTAGEKVTLNCLSSQSLLNAGNQRNYLTWYQQKPGQPPKLLIYWASTRDSGVPDRFTGGGSGVDFTLTIYRVQAEDLAFYYCQNGFSFPFTFGSGTKLEMKR
notes: Chimeric human IgG1/kappa; also called chimeric antibody chE1B1B8C7-V2
In turn, B2 displayed an EC50 in [9] of 3.91 nM.

B3: chE1B1B8C7-V3 (antibody, human IgG1, kappa, V domains shown)
VH: B2 VH
VL: B2 VL with A32E
notes: Chimeric human IgG1/kappa; also called chimeric antibody chE1B1B8C7-V3
In turn, B3 had an EC50 in test [9] of 7.79 nM.

B4: chE1B1B8C7-V1 (antibody, human IgG1, kappa, V domains shown)
VH: B2 VH
VL: B2 VL with N31A, A32S
notes: Chimeric human IgG1/kappa; also called chimeric antibody chE1B1B8C7-V1
Consider B4, for which the EC50 in test [10] was found to be 3.08 nM; in test [9], 6.19 nM.

B5: Zolbetuximab (antibody, human IgG1, kappa, V domains shown)
VH: QVQLQQPGAELVRPGASVKLSCKASGYTFTSYWINWVKQRPGQGLEWIGNIYPSDSYTNYNQKFKDKATLTVDKSSSTAYMQLSSPTSEDSAVYYCTRSWRGNSFDYWGQGTTLTVSS
VL: DIVMTQSPSSLTVTAGEKVTMSCKSSQSLLNSGNQKNYLTWYQQKPGQPPKLLIYWASTRESGVPDRFTGSGSGTDFTLTISSVQAEDLAVYYCQNDYSYPFTFGSGTKLEIKR
notes: also called IMAB362; Benchmark
For B5, the EC50 is 5.48 nM in test [11], 2.44 nM in test [12], 4.67 nM in test [14] and 11 nM in test [15]. For the same molecule, the IC50 in test [13] was 17.3 nM.
